Source: PMC12450071 (Cell reports, 2025)

Target: JUNV GP1 (receptor-binding domain), subunit within the GPC on PV membranes (Junin mammarenavirus, strain MC2 …, UniProt P26313)
Experiment: cryo-EM structure
Conditions: one partner purified

JUNV GP1 (receptor-binding domain), subunit within the GPC on PV membranes, sequence (P26313 whole entry, looked up, the tested form may be a part): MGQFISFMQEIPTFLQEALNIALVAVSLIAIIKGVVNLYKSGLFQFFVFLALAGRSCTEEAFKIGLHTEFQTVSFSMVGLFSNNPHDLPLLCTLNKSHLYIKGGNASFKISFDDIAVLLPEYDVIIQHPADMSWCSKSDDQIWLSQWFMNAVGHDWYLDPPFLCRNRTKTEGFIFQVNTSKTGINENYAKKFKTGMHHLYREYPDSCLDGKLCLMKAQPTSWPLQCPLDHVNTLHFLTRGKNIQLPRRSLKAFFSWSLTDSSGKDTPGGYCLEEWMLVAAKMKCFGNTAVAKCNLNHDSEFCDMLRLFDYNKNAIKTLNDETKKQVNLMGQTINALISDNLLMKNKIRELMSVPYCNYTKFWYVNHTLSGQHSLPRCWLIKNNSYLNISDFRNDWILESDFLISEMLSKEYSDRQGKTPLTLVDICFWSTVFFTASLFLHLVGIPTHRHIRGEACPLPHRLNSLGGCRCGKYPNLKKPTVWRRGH

Binder	binding result
GB03-BE08 (J199) Fab (Fab, V domains shown, source: bought: BEI Resources (J199), ficin digested, dialyzed into TBS pH 8) VH: VALVESGGGLVQPGGSLKLSCASGASFSNAGMSWVRQTPDRRLELVAAINRDGDITYHPDSVKGRFTISRDNAKNTLYLQMSSLKSEDTAMYYCAREDYYGLYFYVMDYWGQGTSVTVA VL: QIVLTQSPAIMSASPGEKVTITCSASSIVSYMHWFQQKPGTSPKLWIYGTSNLASGVPARFSGSGSGTSYSLTISRMEAEDAATYYCQQRNSYPPTFGGGTKLEIK	binds
GFP-fused Fab of the neutralizing antibody CR1-28 (Fab, V domains shown, also called CR1–28Fab; GFP-fused CR1–28Fab; source: HEK293T, transfected, purified from culture media (Ni-NTA)) VH: QVQLVESGGGVVQPGRSLRLSCAASGFTFSSSAMHWVRQAPGKGLEWVAVIWSDGSNENYADSVKGRFTISRDNSKNTLYLQMSSLRAEDTAVYYCATDKTYVSGYTSTWYYFNYWGQGTLVTVSG VL: DIQMTQSPSTLSASVGDRVTITCRASQSIDNWLAWYQQKPGKAPKLLIYTASRLESGVPSRFSGSGSGTEFTLTISSLQPDDFATYYCQHRTFGQGTKVEIK	binds
